Test results from the Immune Epitope Database (IEDB).
pIC50, pKd: −log10 of the molar value. One block for each sequence: values may come before it.

How the values were obtained:
[1] = target: HLA-B*40:01; assay: IEDB peptide-MHC binding, purified MHC/competitive/radioactivity; filed as Kd, often an IC50 or EC50 that approximates it; ≥ and ≤ were set here for values at or beyond the usual limits of such assays
[2] = target: HLA-B*44:03; assay: as above
[3] = target: HLA-B*40:01; assay: IEDB peptide-MHC binding, purified MHC/direct/fluorescence; filed as Kd, often an IC50 or EC50 that approximates it; ≥ and ≤ were set here for values at or beyond the usual limits of such assays
[4] = target: HLA-A*02:01; assay: IEDB peptide-MHC binding, purified MHC/competitive/fluorescence; ≥ and ≤ were set here for values at or beyond the usual limits of such assays
[5] = target: HLA-A*30:02; assay: IEDB peptide-MHC binding, purified MHC/competitive/radioactivity; filed as Kd, often an IC50 or EC50 that approximates it; ≥ and ≤ were set here for values at or beyond the usual limits of such assays; settings: source organism: Dengue virus 4 Philippines/H241/1956
[6] = target: HLA-A*32:01; assay: as above
[7] = target: HLA-B*35:01; assay: as above
[8] = target: HLA-A*24:02; assay: as above; settings: source organism: Homo sapiens
[9] = target: HLA-A*26:01; assay: as above; settings: source organism: Dengue virus 4 Philippines/H241/1956
[10] = target: HLA-B*44:02; assay: as above
[11] = target: HLA-A*01:01; assay: as above; settings: source organism: Dengue virus 3 Sri Lanka/1266/2000
[12] = target: HLA-A*02:01; assay: IEDB peptide-MHC binding, purified MHC/direct/fluorescence; filed as Kd, often an IC50 or EC50 that approximates it; ≥ and ≤ were set here for values at or beyond the usual limits of such assays; settings: source organism: Homo sapiens
[13] = target: HLA-B*07:02; assay: as above; settings: source organism: Human herpesvirus 4 strain B95-8
[14] = target: HLA-A*69:01; assay: as above; settings: source organism: Human herpesvirus 4 strain B95-8
[15] = target: HLA-B*15:01; assay: as above; settings: source organism: Mycobacterium tuberculosis variant bovis BCG str. Pasteur 1173P2
[16] = target: HLA-A*01:01; assay: as above; settings: source organism: Homo sapiens
[17] = source organism: Dengue virus 1 Brazil/97-11/1997
[18] = source organism: Zaire ebolavirus
[19] = source organism: Sudan ebolavirus
[20] = source organism: Dengue virus 3 Martinique/1243/1999
[21] = source organism: Vaccinia virus WR
[22] = source organism: Dengue virus 2 Jamaica/1409/1983
[23] = source organism: Dengue virus 4 Philippines/H241/1956

Sequence: LEFFLMVLLI
pKd [1, 17]: 5.00
pKd [2, 17]: 5.04

Sequence: QEHDCLQIV
pKd ([3]; source organism: Mammarenavirus juninense): 5.83

Sequence: LENIIVPGL
pKd ([3]; source organism: Mycobacterium tuberculosis): 7.15

Sequence: LAWIPYFGP
pIC50 [4, 18]: 4.75

Sequence: MNEENRFVT
pIC50 [4, 18]: 4.39

Sequence: VRLHPLART
pIC50 [4, 18]: ≤ 3.48

Sequence: SEIQLTDYG
pKd [2, 17]: 6.36

Sequence: QLVCKDHLA
pIC50 [4, 19]: 4.71

Sequence: AGPPKAENT
pIC50 [4, 18]: 4.18

Sequence: RNPAQEDDQY
pKd [5]: 4.80

Sequence: LETKGVERL
pKd [1, 20]: 7.66

Sequence: ATALILVSF
pKd [6, 21]: 8.85

Sequence: MLVTPSMTM
pKd [7, 20]: 5.42

Sequence: TLEDDRERL
pIC50 ([4]; source organism: Variola virus): 4.52

Sequence: STTRGALIF
pKd [6, 21]: 6.53

Sequence: KTHVSSWEEV
pKd [6, 17]: 5.17

Sequence: VESWEEIPYL
pKd ([1]; source organism: Dengue virus 2 Peru/IQT2913/1996): 7.28

pKd [8]: 8.35
Sequence: RWGLLLALL

Sequence: VTNVIIIVI
pKd [6, 21]: 7.86

Sequence: EVPFCSHHF
pKd [9]: 5.18

Sequence: LEENVEVEIW
pKd [2, 22]: 6.44
pKd [10, 22]: 6.91

Sequence: FLQSPPIRE
pIC50 [4, 19]: 4.42

Sequence: MHNQNALVC
pIC50 [4, 19]: ≤ 4.04

Sequence: KTDWLPMTV
pKd [11]: 7.25

pKd [12]: 6.08
Sequence: GLENGLNYI

Sequence: SEAVNDSRFW
pKd [2, 23]: 7.38
pKd [10, 23]: 7.94

Sequence: LVQYIKFIF
pKd [6, 21]: 7.70

Sequence: ILGPDCCIE
pIC50 [4, 19]: 4.55

Sequence: VPLLAIGCY
pKd [7, 22]: 6.77

Sequence: VPAPAGPIV
pKd [13]: 7.63
pKd [14]: 6.36

Sequence: KQRGGYAQF
pKd [15]: 6.49

pKd [16]: 4.91
Sequence: ITDVQDMDP

Sequence: KKILMNFHQ
pIC50 [4, 18]: 4.20

Sequence: AGILARWSSF
pKd [6, 17]: 5.55
pKd [10, 17]: 5.29

Sequence: LVCGLRQLA
pIC50 [4, 19]: 5.12

Sequence: EEIAVQNWLA
pKd [2, 22]: 6.37
